± gives the uncertainty stated by the source.
Assay: protein stability index of a GFP-peptide fusion (yeast GPS) (PSI 1-4); higher = more stable; sorted into four equal gates, so the index is relative within each strain
Summary of the method: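 Plasmids isolated from each sorting gate were PCR-amplified and Illumina-sequenced, and barcodes assigned the reads to strains. The gates, four of equal size, were set by GFP/Cherry fluorescence ratio on mid-log cultures in leucine-free medium. These cultures were yeast carrying a pooled library of tiled 17-residue yeast protein peptides fused downstream of GFP on a plasmid that also expresses Cherry. The protein stability index is the sum of every gate's read frequency times its gate number.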

Sequence	protein stability index (doa10∆)	protein stability index (pdr5∆)	protein stability index (san1∆)	protein stability index (ubr1∆)
RKALPKEPKKLLPNSKN [DSN1]	2.55 ± 0.063	2.69 ± 0.071	2.69 ± 0.084	2.87 ± 0.05
RKAYFTAPSSERRVLLS [RPL26B]	1.45 ± 0.041	1.7 ± 0.051	2.49 ± 0.066	1.66 ± 0.045
RKAYFTAPSSQRRVLLS [RPL26A]	2.44 ± 0.055	2.14 ± 0.056	2.54 ± 0.054	1.74 ± 0.047
RKCCNHPYLFEGAEPGP [ISW2]	3.06 ± 0.064	3.11 ± 0.067	3.11 ± 0.05	3.2 ± 0.052
RKFKSRRCDDMLYYIQN [POP4]	2.74 ± 0.069	2.98 ± 0.088	2.81 ± 0.062	2.85 ± 0.048
RKGGPATAEKLPNIYPS [RPT2]	2.89 ± 0.13	3.54 ± 0.25	2.81 ± 0.13	
RKHRNAQFAGRASIEYY [DIS3]	2.99 ± 0.13	3.11 ± 0.072	2.8 ± 0.13	2.99 ± 0.094
RKILESSNIVNENDSQA [YIL149C/MLP2]		2.88 ± 0.14	2.89 ± 0.085	
RKLEISSRFKHRQEIFK [GAL11]	2.76 ± 0.064	3.1 ± 0.061	3.01 ± 0.059	3.09 ± 0.051
RKLINYTKKHLSSHSST [RPN4]	1.34 ± 0.063	1.71 ± 0.049	1.41 ± 0.088	1.28 ± 0.04
RKLMEMENILQRCKSNA [YIL149C/MLP2]	2.04 ± 0.072	2.39 ± 0.086	2 ± 0.096	1.38 ± 0.095
RKQIQLLKKIIFEKELM [SRB4]	1.93 ± 0.051	2.14 ± 0.047	1.86 ± 0.071	2.03 ± 0.034
RKRKCGHTNQLRPKKKL [RPL40A]	2.84 ± 0.035	2.95 ± 0.032	3.017 ± 0.024	3.033 ± 0.026
RKRPVPKGATYGKPTNQ [RPL15A]		3.29 ± 0.19	3.58 ± 0.19	3.45 ± 0.14
RKVRTKKWKKYWQYKAG [SWP82]	2.47 ± 0.089	2.17 ± 0.12	2.83 ± 0.12	2.04 ± 0.058
RKVSGPRALQPSQFGML [RET1]	2.36 ± 0.089	1.67 ± 0.059	2.46 ± 0.12	2.56 ± 0.09
RLAPLIKEENDMENMAD [ARP7]	3.75 ± 0.23	3.65 ± 0.15	2.88 ± 0.14	
RLASEPGIISITSLQDS [YMR129W/POM152]	2.94 ± 0.1	2.34 ± 0.077	2.96 ± 0.083	1.82 ± 0.051
RLEFDQDRDRFFLRDTL [SNF5]	3.07 ± 0.061	3.38 ± 0.065	3.06 ± 0.048	3.4 ± 0.061
RLELAGQLISLLFEDLF [RET1]	2.65 ± 0.092	2.9 ± 0.12	2.67 ± 0.082	2.91 ± 0.075
RLFIKPGQKMSLFSHRK [BRN1]	2.74 ± 0.14	3.06 ± 0.11	3.07 ± 0.13	3.02 ± 0.12
RLGGDDLRIRIKLDIVV [SNF5]	1.35 ± 0.16	1.33 ± 0.097	1.54 ± 0.13	1.29 ± 0.099
RLHYYPKDPSNVETYEQ [BRR2]	3.02 ± 0.11	3.11 ± 0.23	3.01 ± 0.24	
RLIDSMKQYSYLMDSKN [RRI1]	2.62 ± 0.21	2.41 ± 0.14		2.87 ± 0.18
RLNTVTRVHQLMLEDAV [MCD1]	3.32 ± 0.21	1.62 ± 0.06	1.69 ± 0.21	2.32 ± 0.095
RLQAANSMEYTGKITKM [CDC53]	2.99 ± 0.12	2.62 ± 0.14	2.52 ± 0.094	2.73 ± 0.064
RLQGIKLLDNIQEYQLC [COR1]	2.46 ± 0.13	2.24 ± 0.092	2.06 ± 0.13	2.34 ± 0.063

— the supplement of paper PMC9732359
